{"source": "paper PMC11359509", "about": "“Anti-Skin Aging Potential, Antibacterial Activity, Inhibition of Single-Stranded DNA-Binding Protein, and Cytotoxic Effects of Acetone-Extracted Passiflora edulis (Tainung No. 1) Rind Extract on Oral”", "molecular_target": "KpSSB (single-stranded DNA-binding protein) (Klebsiella pneumoniae, UniProt A6TGW7 1-174)", "sequence (A6TGW7 whole entry)": "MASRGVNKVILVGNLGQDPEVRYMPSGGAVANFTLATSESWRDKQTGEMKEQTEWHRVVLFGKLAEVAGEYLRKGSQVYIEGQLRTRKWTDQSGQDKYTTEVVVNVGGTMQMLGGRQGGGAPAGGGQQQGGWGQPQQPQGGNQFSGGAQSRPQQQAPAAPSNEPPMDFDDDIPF", "assay": "EMSA; no extract; [Protein]50; 40 mM Tris-HCl pH 7.5, 50 mM NaCl, 37 °C, 60 min; 30 fmol/uL biotinylated ssDNA; 8% native PAGE in TBE", "settings": "protein: recombinant, tag not described, chain copies: 4", "data": [{"binder": "TTTTTTTTTTTTTTTTTTTTTTTTTTTTTTTTTTT (ssDNA)", "note": "[dT35]", "values": [{"measurement": "apparent K (half saturation)", "result": "206 ± 14.3", "unit": "nM"}]}]}
